Kd and stoichiometry N data for two substances are collected here from PMC12092003.

A word on the Kd: it is the free concentration of one partner at which half of the binding sites on the other are occupied at equilibrium, for simple one-to-one binding. Higher therefore signals weaker binding. For orientation: stoichiometry N means a count of units in the complex or per binding partner.

For assay [1], the target named is Cd28 with EGFP-tag (labeled protein of the MST assay) (zebrafish). In words: MST; Monolith NT.115; EGFP-tagged Cd28 or Ctla-4 as labeled protein, unlabeled Cd80/86 titrated (initial 3.2 µM, 16 doubling dilutions), 10 min at room temperature, measured at 25 °C, 40% LED, medium MST power.
In assay [2] the target is Ctla-4 with EGFP-tag (labeled protein of the MST assay) (zebrafish). The description is as above.
Assay [3] addresses HA-Ctla-4 (zebrafish cytotoxic T lymphocyte antigen-4, from pCDNA3.1-HA-Ctla-4) (zebrafish). Nature of the assay: Western blot under non-reducing and reducing conditions; lysate of HEK293T cells transfected with pCDNA3.1-HA-Ctla-4 for 48 hr, mixed with loading buffer without or with β-ME; empty plasmid as control.

In the case of “recombinant soluble Cd80/86 (Cd80/86 extracellular domain) (domain or fragment)”, the dissociation constant Kd in assay [1] was 2.64 µM; in assay [2], 0.5 µM.

The substance “HA-Ctla-4 (zebrafish cytotoxic T lymphocyte antigen-4, from pCDNA3.1-HA-Ctla-4) (receptor)” yielded a stoichiometry N in assay [3] of 2.
